Assay results taken from patent publication US20150231220A1 (GREEN CROSS, published 2015).

How the values were obtained:
[1] = target: EGFR coated on the plate (competitive binding test) (UniProt P00533); test: competitive ELISA on plate-coated EGFR; competitor GC1118 at […]; antibody:ligand molar ratio 1:10^4; remaining antibody binding
[2] = target: EGFR coated on the plate (competitive binding test) (UniProt P00533); test: competitive ELISA on plate-coated EGFR; competitor GC1118 at […]; antibody:ligand molar ratio 1:10^5; remaining antibody binding
[3] = target: EGFR coated on the plate (competitive binding test) (UniProt P00533); test: competitive ELISA on plate-coated EGFR; competitor cetuximab at […]; antibody:ligand molar ratio 1:10^5; remaining antibody binding
[4] = target: EGFR coated on the plate (competitive binding test) (UniProt P00533); test: competitive ELISA on plate-coated EGFR; competitor cetuximab at […]; antibody:ligand molar ratio 1:10^4; remaining antibody binding
[5] = target: T1, EGFR coated on the plate (competitive binding test) (UniProt P00533 25-645, limits assumed); test: competitive ELISA on plate-coated EGFR; competitor GC1118 at 1.5 nM; antibody:ligand molar ratio 1:10^4; remaining antibody binding
[6] = target: T1, EGFR coated on the plate (competitive …); test: competitive ELISA on plate-coated EGFR; competitor cetuximab at 1.5 nM; antibody:ligand molar ratio 1:10^5; remaining antibody binding
[7] = target: T1, EGFR coated on the plate (competitive …); test: competitive ELISA on plate-coated EGFR; competitor cetuximab at 1.5 nM; antibody:ligand molar ratio 1:10^4; remaining antibody binding
[8] = target: T1, EGFR coated on the plate (competitive …); test: competitive ELISA on plate-coated EGFR; competitor GC1118 at 1.5 nM; antibody:ligand molar ratio 1:10^5; remaining antibody binding

Antibody binding (%) [1] [%]	Antibody binding (%) [2] [%]	Antibody binding (%) [3] [%]	Antibody binding (%) [4] [%]	Antibody binding (%) [5] [%]	Antibody binding (%) [6] [%]	Antibody binding (%) [7] [%]	Antibody binding (%) [8] [%]	Molecule
99.6	99.9	99.9	96.6					Amphiregulin (from UniProt P15514 101-198) (ligand)
				65.1	76.1	96.2	31.2	Heparin-binding EGF-like growth factor (ligand, human, UniProt Q99075 63-148, looked up, also called HB-EGF) DLQEADLDLLRVTLSSKPQALATPNKEEHGKRKKKGKGLGKKRDPCLRKYKDFCIHGECKYVKELRAPSCICHPGYHGERCHGLSL
				40.4	51.1	80.2	18.9	β-Cellulin (ligand, human, UniProt P35070 32-111, looked up, also called BTC; betacellulin) DGNSTRSPETNGLLCGDPEENCAATTTQSKRKGHFSRCPKQYKHYCIKGRCRFVVAEQTPSCVCDEGYIGARCERVDLFY
